Source: patent publication US20210403593A1 (TIZONA THERAPEUTICS, published 2021)
Numbering of substitutions follows the chain as printed.

Legend:
[1] = target: T1, cynomolgus macaque (Macaca fascicularis) CD39 (Macaca fascicularis, UniProt P49961 7-510 (human entry)); experiment: flow cytometry, 100 nM IgG, MFI on CHO-cCD39 / MFI on parental CHO;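 note: antibodies bound to the cells for 30 min in PBS, then bound IgG was revealed with a fluorescent goat anti-human IgG secondary antibody, 20 min on ice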
T1 construct: On engineered CHO cells and on primary cyno B cells and monocytes; also called cyno CD39; cCD39
T1 chain: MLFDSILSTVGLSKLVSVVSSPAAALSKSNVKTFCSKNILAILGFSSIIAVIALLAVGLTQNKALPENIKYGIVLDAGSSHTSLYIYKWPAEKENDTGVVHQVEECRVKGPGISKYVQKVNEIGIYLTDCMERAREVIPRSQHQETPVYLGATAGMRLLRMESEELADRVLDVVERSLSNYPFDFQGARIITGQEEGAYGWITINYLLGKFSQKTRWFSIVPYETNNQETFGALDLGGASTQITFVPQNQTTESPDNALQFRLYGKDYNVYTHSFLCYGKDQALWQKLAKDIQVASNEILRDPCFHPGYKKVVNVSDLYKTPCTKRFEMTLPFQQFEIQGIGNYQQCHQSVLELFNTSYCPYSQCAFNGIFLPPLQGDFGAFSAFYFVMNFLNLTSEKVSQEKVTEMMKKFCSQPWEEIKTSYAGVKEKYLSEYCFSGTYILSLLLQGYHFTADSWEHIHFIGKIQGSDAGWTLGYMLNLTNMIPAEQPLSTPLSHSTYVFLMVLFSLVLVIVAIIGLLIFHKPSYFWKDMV

[2] = target: T2, human CD39 (cellular) (human, UniProt P49961 1-510); experiment: flow cytometry, 100 nM IgG, MFI on CHO-hCD39 / MFI on parental CHO;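 note: cells exposed to IgG for 30 min on ice in PBS, bound antibody then revealed with a fluorescent goat anti-human IgG secondary (20 min, on ice)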
T2 construct: Same protein on engineered CHO cells and on cells that express it endogenously; also called hCD39; cellular CD39
T2 sequence: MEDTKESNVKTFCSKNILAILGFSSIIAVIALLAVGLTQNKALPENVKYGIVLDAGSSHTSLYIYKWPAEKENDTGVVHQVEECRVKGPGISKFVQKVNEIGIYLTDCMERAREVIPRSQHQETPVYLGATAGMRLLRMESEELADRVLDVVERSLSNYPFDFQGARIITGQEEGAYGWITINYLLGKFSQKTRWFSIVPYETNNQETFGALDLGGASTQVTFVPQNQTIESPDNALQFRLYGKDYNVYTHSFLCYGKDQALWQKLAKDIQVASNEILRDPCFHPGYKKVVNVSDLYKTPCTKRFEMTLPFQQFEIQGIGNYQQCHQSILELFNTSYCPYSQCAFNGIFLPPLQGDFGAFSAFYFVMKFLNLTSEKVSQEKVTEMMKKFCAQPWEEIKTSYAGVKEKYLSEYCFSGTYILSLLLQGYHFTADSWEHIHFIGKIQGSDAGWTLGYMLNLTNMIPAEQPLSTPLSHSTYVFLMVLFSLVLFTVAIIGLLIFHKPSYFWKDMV

[3] = target: T3, Chimera #9 (Homo sapiens (Human), UniProt P49961 1-510); experiment: FACS on CHO cells, 15 ug/ml; Chimera 2 with human D150 ([..])
T3 construct: Expressed on CHO cells
T3 chain: T2 sequence with E143Q, L144S, R147E, V151A, E153S, R154T, S157K, N158S

[4] = target: T4, Chimera #10 (Homo sapiens (Human), UniProt P49961 1-510); experiment: FACS on CHO cells, 15 ug/ml; Chimera 2 with human E153 ([..])
T4 construct: Expressed on CHO cells
T4 chain: T2 sequence with E143Q, L144S, R147E, D150A, V151A, R154T, S157K, N158S

[5] = target: T5, Chimera #4 (Homo sapiens (Human), UniProt P49961 1-510); experiment: FACS on CHO cells, 15 ug/ml; human M1-S274 + mouse GGV + human L278-V510
T5 construct: Expressed on CHO cells
T5 chain: T2 sequence with N275G, E276G, I277V

[6] = target: T6, Chimera #2 (human, UniProt P49961 1-510); experiment: FACS on CHO cells; human M1-E142 + mouse Q143-S158 ([..]) + human Y159-V510
T6 construct: Expressed on CHO cells; also called human-mouse Chimera #2
T6 chain: T2 sequence with E143Q, L144S, R147E, D150A, V151A, E153S, R154T, S157K, N158S

Cell Binding (FOB) [1]: 3180 fold over background
Cell Binding (FOB) [2]: 1080 fold over background
binding result [3]: binds
binding result [4]: binds
binding result [5]: binds
binding result [6]: no binding (tested: 15 ug/ml)
B1: 31418 (antibody, human IgG4 S228P, kappa, V domains shown)
VH: QVQLVQSGAEVKKPGASVKVSCKASGYTFKSYEMHWVRQAPGQGLEWMGRINPSGGSTWYAQKFQGRVTMTRDTSTSTVYMELSSLRSEDTAVYYCARGKREGGTEYLRHWGQGTLVTVSS
VL: EIVLTQSPGTLSLSPGERATLSCRASQSVSSSYLAWYQQKPGQAPRLLIYGASSRATGIPDRFSGSGSGTDFTLTISRLEPEDFAVYYCQQYYFYITFGGGTKVEIKR
